This is an account of results in publication PMC2654920, “Borrelia recurrentis Employs a Novel Multifunctional Surface Protein with Anti-Complement, Anti-Opsonic and Invasive Potential to Escape Innate Immunity” (PLoS ONE, 2009).

One assay addresses T1, recombinant CFHR-1 (human, UniProt Q03591 19-330).
T1 construct: complement factor H-related protein 1, human, recombinant; also called CFH-related protein 1
T1 sequence: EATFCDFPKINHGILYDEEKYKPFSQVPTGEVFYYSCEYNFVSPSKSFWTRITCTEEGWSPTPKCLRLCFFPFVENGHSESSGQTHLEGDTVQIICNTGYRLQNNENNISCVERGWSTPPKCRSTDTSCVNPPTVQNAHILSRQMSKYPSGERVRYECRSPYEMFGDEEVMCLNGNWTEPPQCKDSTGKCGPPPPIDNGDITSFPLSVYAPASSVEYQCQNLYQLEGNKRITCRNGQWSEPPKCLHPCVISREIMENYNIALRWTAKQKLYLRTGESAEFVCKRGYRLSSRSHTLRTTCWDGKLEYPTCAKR
Description: far-Western, overlay or dot blot; ligand affinity blot: purified recombinant HcpA separated by SDS-PAGE, on nitrocellulose strips, incubated with recombinant CFHL-1, CFH deletion constructs or recombinant CFHR-1; anti-CFH immune serum, mAb JHD7 or JHD8. Particulars: both partners purified.

The target of assay [1] is T2, human complement factor H (human, UniProt P08603 19-1231).
T2 construct: complement factor H, human, 20 short consensus repeats (SCRs); purified protein or as present in normal human serum; purified human factor H of Calbiochem is the only one named; also called CFH; source: bought: Calbiochem (purified human factor H); also in normal human serum
Description: ELISA; competition inhibition assay: HcpA (2 µg/ml) coated; constant CFH (3 µg/ml in the methods, 2 µg/ml in the results) with PLG 0.001-100 µg/ml, or constant PLG (10 µg/ml) with CFH 0.001-100 µg/ml. The following applies: both partners purified. Background: An ELISA detects its analyte on a solid surface through an enzyme-linked reagent.

B1: recombinant full-length HcpA (residues 18 to 175) of B. recurrentis A1 (domain or fragment)
chain: LLSKNANLQPKTLETLESNIDDGQKQALAFFQESLQDNKHLDALKQAQSALLKDIKDKPQKTLNFKYNKTKLEQLFRKLGNDKTKQFLKNLHVTIKFINNGSFQSFSSANFNDLDTLEKKQERAINSIKEELYVNYYLYTNELVDLDYFFYRAMNYLS
notes: HcpA, surface lipoprotein of B. recurrentis A1, residues 18-175, lacking the hydrophobic leader peptide; cloned into pQE-30Xa with primers BrBam and BrSal; also called intact HcpA; source: E. coli JM109, purified as recommended by the manufacturer (Qiagen); not shown: His6, N-terminal, kept
With B1, the binding result (in the assay with recombinant CFHR-1; in assay [1]) was “binds” in each case.
